In this assay the target is T1, K^18-TAMRA-NPY (5/6-tetramethylrhodamine (TAMRA) on the side chain of Lys18).
T1 construct: neuropeptide Y (NPY) with a TAMRA-carrying lysine at position 18; also called Tam-labeled NPY; TAMRA-labeled peptide ligand; source: synthetic peptide (Fmoc/tBu solid phase, RP-HPLC, purity > 95%)
As to the kind of experiment: fluorescence polarisation; various concentrations of receptor in small DMPC/DHPC bicelles with 50 nM (K^18-TAMRA)-NPY, 1 h at room temperature, measured at 20 °C; sigmoidal dose-response fit. The settings on record: both partners purified. In general terms: Polarisation of emitted light reports the rotation of a fluorescent probe.

B1: Y2R_A202^45.49C,Δ6Cys-IAP (A202^45.49-P1) (receptor)
chain: MGPIGAEADENQTVEEMKVEQYGPQTTPRGELVPDPEPELIDSTKLIEVQVVLILAYASIILLGVIGNSLVIHVVIKFKSMRTVTNFFIANLAVADLLVNTLALPFTLTYTLMGEWKMGPVLCHLVPYAQGLAVQVSTITLTVIALDRHRAIVYHLESKISKRISFLIIGLAWGISALLASPLAIFREYSLIEIIPDFEIVCCTEKWPGEEKSIYGTVYSLSSLLILYVLPLGIISFSYTRIWSKLKNHVSPGAANDHYHQRRQKTTKMLVSVVVVFAVSWLPLHAFQLAVDIDSQVLDLKEYKLIFTVFHIIAMASTFANPLLYGWMNSNYRKAFLSAFRSEQRLDAIHSEVSVTFKAKKNLEVRKNSGPNDSFTEATNV
modifications: cysteine at position 202 labelled with 3-(2-iodacetamido)-proxyl (IAP), thioether-bound spin label side chain P1
The molecule B1 returned a Kd of 81.8 ± 5.1 nM.

As usually defined, the Kd is the equilibrium constant for the complex coming apart.
